Results as given in patent US11542488B2, “Sortase synthesized chimeric antigen receptors” (Novartis AG, priority 2014, dated 2023).

Assays:
CD19 = molecular target: T1, CD19 (Homo sapiens, UniProt P15391); assay: Flow cytometry labeling of K562 cells with scFV19 conjugated to TAMRA; type: binding
T1 construct: expressed in transfected cells; host or cells: K562
T1 sequence (P15391 20-556): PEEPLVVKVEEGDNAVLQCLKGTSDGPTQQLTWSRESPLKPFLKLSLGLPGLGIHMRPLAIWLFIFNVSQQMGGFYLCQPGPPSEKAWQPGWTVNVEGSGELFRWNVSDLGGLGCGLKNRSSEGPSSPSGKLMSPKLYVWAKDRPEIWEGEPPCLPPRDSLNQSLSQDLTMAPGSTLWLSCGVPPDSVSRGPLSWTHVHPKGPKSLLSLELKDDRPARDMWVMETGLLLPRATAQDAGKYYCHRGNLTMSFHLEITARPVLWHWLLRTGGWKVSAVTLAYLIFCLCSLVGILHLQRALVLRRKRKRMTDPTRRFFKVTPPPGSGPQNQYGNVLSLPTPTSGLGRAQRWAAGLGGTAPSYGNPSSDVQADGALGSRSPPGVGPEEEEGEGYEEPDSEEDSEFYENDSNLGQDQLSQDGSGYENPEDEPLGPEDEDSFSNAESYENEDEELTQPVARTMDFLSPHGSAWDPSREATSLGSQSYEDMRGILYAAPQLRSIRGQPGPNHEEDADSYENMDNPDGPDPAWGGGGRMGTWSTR
Source text: As a control, scFV19 subjected to the same reaction conditions to label the scFV with TAMRA, but omitting sortase (scFV19.LPETG+TAMRA_not conjugated (SEQ ID NO: 112)) was used. Flow cytometry analysis comparing cell labeling is shown.
To determine whether the presence of the sortase-recognition motif interferes with the ability of the scFV19 to recognize CD19, the scFV19.LPETGG.His8 (“LPETGG” and “His8” disclosed as SEQ ID NOS 21 and 111, respectively) was labeled with the G3K(TAMRA) peptide (SEQ ID NO:23) using the mutant sortase A as described in Example 1. […] Upon reaction, each of the preparations were filtered through a desalting column to remove unreacted G3K(TAMRA) peptide (SEQ ID NO: 23). Different concentrations of the scFV19.LPETG3K(TAMRA) conjugate (“LPETG3K” disclosed as SEQ ID NO: 250) and unconjugated control were then used to label untransduced K562 cells or K562 overexpressing CD19. […] Thus, the results presented herein confirm that the scFV19.LPETGG.His8 substrate (“LPETGG” and “His8” disclosed as SEQ ID NOS 21 and 111, respectively) for sortase is functional and that the sortase labeling strategy can be used to create new tools for FACS staining.

[1] = test system: scFV directed to CD19 harboring a LPXTG sortase-recognition motif (scFV19); assay: Sortase-mediated labeling of scFV19 with GGGK(TAMRA) peptide, reducing SDS-PAGE and fluorescent scanning; type: biochemical; conditions: for calcium requirement for labeling of scFV19 with TAMRA peptide: absence or presence of 10 mM calcium
Source text: Characterization of the enzyme was initially done in vitro using purified proteins. As the reaction substrate, a scFV directed to CD19 (scFV19) comprising a sortase A recognition motif (LPETGG, SEQ ID NO: 21) and a His8 (SEQ ID NO: 111) purification handle at the C-terminus (also referred to herein as scFv19.LPETGG.His8 (“LPETGG” and “His8” disclosed as SEQ ID NOS 21 and 111, respectively)) was cloned, expressed, and purified. This is the same scFV19 that was used in subsequent examples to test site-specific attachment to live cells using sortase:
As a nucleophile for these test reactions fluorescently labeled peptide: GGGK(TAMRA) (KRUEGANA-001-EXP022) (SEQ ID NO:23) was synthesized and purified. The fluorophore moiety allowed for convenient monitoring of the reaction by SDS-PAGE followed by fluorescent scanning.
The activities of mutant and wild-type (SrtA aureus_His6SrtA26-206 (“His6” disclosed as SEQ ID NO: 110)) sortases were compared side-by-side in the absence or presence of 10 mM calcium in 50 mM Tris-Cl, pH 7.4, 150 mM NaCl buffer, using final concentrations of 40 μM sortase, 20 μM scFV.LPETG.His8 (“LPETG” and “His8” disclosed as SEQ ID NOS 112 and 111, respectively), and 1 mM GGGK(TAMRA) (SEQ ID NO:23). The reactions were incubated at 37° for different periods of time (as indicated in FIG. 2), and analyzed by reducing SDS-PAGE followed by fluorescent scanning (using a ChemiDoc gel imaging system from BioRad) and coomassie staining.
The activity of mutant sortase A was active in culture media (RMPI supplemented with 1% FBS) was determined using the same reaction conditions as in Example 2. The presence of the fluorescent bands indicates the successful coupling of scFv19 to the TAMRA-labeled peptide in the presence of cell culture media. […] As in Example 2, the reaction was complete upon 45′ incubation at 37° C. (FIG. 3). […]

[2] = 40 μM sortase, 20 μM scFV, 1 mM GGGK(TAMRA), 37°

B1: scFV19.LPETGG.His8: scFV directed to CD19 comprising a sortase A recognition motif (LPETGG) and a His8 handle at the C-terminus (SEQ ID NO: 22) (protein)
scFv: METDTLLLWVLLLWVPGSTGEIVMTQSPATLSLSPGERATLSCRASQDISKYLNWYQQKPGQAPRLLIYHTSRLHSGIPARFSGSGSGTDYTLTISSLQPEDFAVYFCQQGNTLPYTFGQGTKLEIKGGGGSGGGGSGGGGSQVQLQESGPGLVKPSETLSLTCTVSGVSLPDYGVSWIRQPPGKGLEWIGVIWGSETTYYSSSLKSRVTISKDNSKNQVSLKLSSVTAADTAVYYCAKHYYYGGSYAMDYWGQGTLVTVSSLPETGGLDVLFEGPHHHHHHHH
modifications: C-terminal LPETGG sortase motif and His8 tag
How did the “functionality of scFV19 carrying the sortase-recognition motif (recognition of CD19)” value (CD19; K562 cells expressing CD19) turn out when B1 was run?
Its value is “functional”.

B2: mutant sortase A: S. aureus Sortase A mutant lacking the N-terminal 59 amino acids, calcium independent and faster (SEQ ID NO: 4) (protein)
chain: MQAKPQIPKDKSKVAGYIEIPDADIKEPVYPGPATREQLNRGVSFAKENQSLDDQNISIAGHTFIDRPNYQFTNLKAAKKGSMVYFKVGNETRKYKMTSIRNVKPTAVEVLDEQKGKDKQLTLITCDDYNEETGVWETRKIFVATEVKLEHHHHHH
With B2 as the molecule, how does the “incubation time at which fluorescence was demonstrated” value [1, 2] read?
Its value is ≤ 15 min.

What about the “time to same labeling proportion with three-fold higher enzyme concentration” value ([1]; 120 μM versus 40 μM sortase) of the same molecule?
Its value is “half of the time”.

What about the “incubation time for complete labeling of scFV19 with TAMRA peptide” value ([1]; 50 mM Tris-Cl, pH 7.4, 150 mM NaCl buffer, 37° C.) of the same molecule?
Its value is 45 ′.

And the “reaction speed compared with wild-type sortase” value ([1]; 37°)?
The value was “faster”.

And the “specificity: serum proteins labeled with fluorophore” value ([1]; RPMI + 1% FBS)?
Its value is “no proteins from the serum”.

What about the “activity in culture media” value ([1]; RPMI supplemented with 1% FBS) of the same molecule?
The value was “active”.

And the “calcium requirement for labeling of scFV19 with TAMRA peptide” value [1, 2]?
Its value is “regardless of whether calcium was present”.

And the “fluorescence compared to reactions containing wild-type sortase” value ([1]; all three timepoints)?
The value was “Increased fluorescence”.

And the “incubation time for complete reaction” value ([1]; culture media (RPMI + 1% FBS), 37° C.)?
The value was 45 ′.

What about the “labeling differences between reactions in buffer or in culture media” value ([1]; reaction kinetics and fluorescence intensity) of the same molecule?
Its value is “No major labeling differences”.

B3: wild-type sortase: wild-type S. aureus sortase A (His6SrtA26-206) (protein, UniProt Q2FV99 26-206, looked up, fragment)
chain: KPHIDNYLHDKDKDEKIEQYDKNVKEQASKDKKQQAKPQIPKDKSKVAGYIEIPDADIKEPVYPGPATPEQLNRGVSFAEENESLDDQNISIAGHTFIDRPNYQFTNLKAAKKGSMVYFKVGNETRKYKMTSIRDVKPTDVGVLDEQKGKDKQLTLITCDDYNEKTGVWEKRKIFVATEVK
modifications: His6 tag
With B3 as the molecule, how does the “fluorescence at 15 minutes of incubation” value [1, 2] read?
Its value is “no fluorescence was detected”.

And the “calcium requirement for labeling of scFV19 with TAMRA peptide” value [1, 2]?
The value was “essential”.

B4: scFV19.LPETG3K(TAMRA) conjugate (conjugate)
scFv: EIVMTQSPATLSLSPGERATLSCRASQDISKYLNWYQQKPGQAPRLLIYHTSRLHSGIPARFSGSGSGTDYTLTISSLQPEDFAVYFCQQGNTLPYTFGQGTKLEIKGGGGSGGGGSGGGGSQVQLQESGPGLVKPSETLSLTCTVSGVSLPDYGVSWIRQPPGKGLEWIGVIWGSETTYYSSSLKSRVTISKDNSKNQVSLKLSSVTAADTAVYYCAKHYYYGGSYAMDYWGQGTLVTVSSLPETGGGK
Which “cell labeling by flow cytometry” value (CD19; untransduced K562 cells or K562 overexpressing CD19, 30 min at 4° C., control reaction without sortase) does the source give for B4 here?
Its value is “cell labeling was observed only with the conjugate and only on K562 cells expressing CD19”.
